Data taken from PMC6994465, “Structural basis of proton-coupled potassium transport in the KUP family” (Nature Communications, 2020).

Target: the molecule itself
Assay: cryo-EM structure; KimA in SMA lipid particles (SMALPs) at 1.1 mg/mL, 50 mM Tris pH 8, 100 mM KCl, with 50 uM cyclic di-AMP; C2 symmetry; 3.7 A

B1: KimA from Bacillus subtilis (natural protein)
chain: MYHSIKRFLIGKPLKSQAAGEQKLTKLKALAMLSSDALSSVAYGTEQILIILATISAAAFWYSIPIAVGVLILLLALILSYRQIIYAYPQGGGAYIVSKENLGEKPGLIAGGSLLVDYILTVAVSISAGTDAITSAFPALHDYHVPIAIFLVLVIMILNLRGLSESASILAYPVYLFVVALLVLIAVGLFKLMTGQIDQPAHHTSLGTPVAGITLFLLLKAFSSGCSALTGVEAISNAIPAFKNPPARNAARTLAMMGILLAILFSGITVLAYGYGTAPKPDETVVSQIASETFGRNVFYYVIQGVTSLILVLAANTGFSAFPQLAFNLARDQYMPRMFTVRGDRLGFSNGIIFLGFASIVLIILFGGQTEHLIPLYAVGVFIPFTLSQTGMCMKWIKQKPKGWIGKMLINSCGALISFMVLSILFVTKFNVVWPVLIFMPIVVLLFFAIKNHYTAVGEQLRIVDKEPEEIKGTVVIVPVAGVTTVVQKSIHYAKSLSDQVIAVHVSFDREQEKKFEKRWEELNNGVRLVTLHSSYRSLVHPFDKFLETVEAKAKKEQFSVMVLFPQFITKKRWHTILHNQSAFLLRVRLFWKKDIMVATLPYHFKK
notes: KimA, potassium importer of the KUP family, Bacillus subtilis; gene amplified from genomic DNA; Homodimer in the cryo-EM structure; The model holds 572 of 607 residues (it lacks the first 26 residues and residues 480-481, 534-538 and 607); Primers are in the Supplementary Methods; also called wild-type KimA; potassium importer KimA; source: E. coli LB2003, purified (membranes solubilised with SMA …)
stoichiometry N: 2
